The text below walks through data of PMC10794152.

Test [1] deals with full-length human basigin (human). As to the kind of experiment: MST; Alexa Fluor 488-labelled full-length basigin held at 0.1 µM; PfRH5 or PfRCR titrated 2 µM to 0.12 nM; 20 mM Tris pH 8.0, 200 mM NaCl, 1 mg/ml salmon sperm DNA, 0.02% DDM; 25 °C.
For test [2], the target named is basigin ectodomain (human). As to the kind of experiment: MST; Alexa Fluor 488-labelled BSG^ecto held at 0.25 µM; PfRH5 or PfRCR titrated 8 µM to 3.91 nM; 20 mM Tris pH 8.0, 200 mM NaCl, 1 mg/ml salmon sperm DNA, 0.01% Tween-20; 25 °C.

Turning to PfRH5 (natural protein), the Kd came out at 0.12 µM in test [1] and 0.19 µM in test [2].
